Assay results from US20250218531A1 (ABSCI, published 2025).
Where a chain is given by its changes, count along the chain named.

B1: AI Design 7 (multi-step AI designed trastuzumab variant, native HCDR1) (Fab, V domains shown)
VH: EVQLVESGGGLVQPGGSLRLSCAASGFNIKDTYIHWVRQAPGKGLEWVARIDPANGYTRYADSVKGRFTISADTSKNTAYLQMNSLRAEDTAVYYCARVGGRGYYYYDYWGQGTLVTVSS
VL: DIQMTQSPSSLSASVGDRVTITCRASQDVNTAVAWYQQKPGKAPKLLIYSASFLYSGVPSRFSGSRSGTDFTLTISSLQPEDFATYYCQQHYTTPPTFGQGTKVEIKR
notes: Fab format; also called GFNIKDTY / IDPANGYT / ARVGGRGYYYYDY
B2: AI Design 5 (multi-step AI designed trastuzumab HCDR1/2/3 variant) (Fab, V domains shown)
VH: B1 VH with I29F, D52Y, R98S, V99D, R102S, G103Y, Y104S, Y106A, Y107F
VL: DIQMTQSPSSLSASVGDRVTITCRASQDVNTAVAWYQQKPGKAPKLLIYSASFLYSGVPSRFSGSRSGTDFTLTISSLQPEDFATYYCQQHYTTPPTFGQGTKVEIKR
notes: Fab format; also called GFNFKDTY / IYPANGYT / ASDGGSYSYAFDY
B3: AI Design 2 (multi-step AI designed trastuzumab HCDR1/2/3 variant) (Fab, V domains shown)
VH: EVQLVESGGGLVQPGGSLRLSCAASGFNISDYYIHWVRQAPGKGLEWVARIYPSSGYTRYADSVKGRFTISADTSKNTAYLQMNSLRAEDTAVYYCARDGGVGSYSMDVWGQGTLVTVSS
VL: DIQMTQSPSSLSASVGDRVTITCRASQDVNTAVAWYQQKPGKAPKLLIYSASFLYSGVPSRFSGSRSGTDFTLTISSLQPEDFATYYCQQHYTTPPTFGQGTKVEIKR
notes: Fab format; also called GFNISDYY / IYPSSGYT / ARDGGVGSYSMDV
B4: AI Design 3 (multi-step AI designed trastuzumab HCDR1/2/3 variant) (Fab, V domains shown)
VH: B3 VH with S30K, S55R, D99H, G101S, V102E, S104R, S106T
VL: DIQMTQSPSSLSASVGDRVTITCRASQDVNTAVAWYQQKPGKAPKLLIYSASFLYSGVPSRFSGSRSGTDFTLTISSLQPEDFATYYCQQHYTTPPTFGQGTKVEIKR
notes: Fab format; also called GFNIKDYY / IYPSRGYT / ARHGSEGRYTMDV
B5: AI Design 4 (multi-step AI designed trastuzumab HCDR1/2/3 variant) (Fab, V domains shown)
VH: B1 VH with Y33W
VL: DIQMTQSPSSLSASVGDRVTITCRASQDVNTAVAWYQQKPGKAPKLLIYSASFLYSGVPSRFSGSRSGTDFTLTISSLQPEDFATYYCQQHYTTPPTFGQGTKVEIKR
notes: Fab format; also called GFNIKDTW / IDPANGYT / ARVGGRGYYYYDY
B6: De novo trastuzumab HCDR3 variant ARTGWGYDNISGYEY (SEQ ID NO: 497) (Fab, V domains shown)
VH: EVQLVESGGGLVQPGGSLRLSCAASGFNIKDTYIHWVRQAPGKGLEWVARIYPTNGYTRYADSVKGRFTISADTSKNTAYLQMNSLRAEDTAVYYCARTGWGYDNISGYEYWGQGTLVTVSS
VL: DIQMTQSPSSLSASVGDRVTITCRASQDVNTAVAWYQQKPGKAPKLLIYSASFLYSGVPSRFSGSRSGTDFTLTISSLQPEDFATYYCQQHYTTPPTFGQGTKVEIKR
B7: De novo trastuzumab HCDR3 variant ARYAGVERPGSFAY (SEQ ID NO: 43) (Fab, V domains shown)
VH: EVQLVESGGGLVQPGGSLRLSCAASGFNIKDTYIHWVRQAPGKGLEWVARIYPTNGYTRYADSVKGRFTISADTSKNTAYLQMNSLRAEDTAVYYCARYAGVERPGSFAYWGQGTLVTVSS
VL: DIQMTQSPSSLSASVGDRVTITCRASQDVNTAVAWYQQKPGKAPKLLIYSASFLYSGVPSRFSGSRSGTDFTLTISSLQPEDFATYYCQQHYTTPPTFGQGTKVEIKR
B8: De novo trastuzumab HCDR3 variant ARLYYSSFNGM (SEQ ID NO: 485) (Fab, V domains shown)
VH: EVQLVESGGGLVQPGGSLRLSCAASGFNIKDTYIHWVRQAPGKGLEWVARIYPTNGYTRYADSVKGRFTISADTSKNTAYLQMNSLRAEDTAVYYCARLYYSSFNGMWGQGTLVTVSS
VL: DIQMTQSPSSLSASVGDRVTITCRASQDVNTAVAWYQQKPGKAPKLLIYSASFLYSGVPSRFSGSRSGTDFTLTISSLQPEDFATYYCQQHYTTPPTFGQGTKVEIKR
B9: De novo trastuzumab HCDR3 variant TRRDFGYYMAY (SEQ ID NO: 494) (Fab, V domains shown)
VH: B8 VH with A97T, L99R, Y100D, Y101F, S102G, S103Y, F104Y, N105M, G106A, M107Y
VL: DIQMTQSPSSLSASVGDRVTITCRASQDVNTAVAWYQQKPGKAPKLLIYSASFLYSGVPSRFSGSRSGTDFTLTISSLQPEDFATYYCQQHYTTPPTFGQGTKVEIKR
B10: De novo trastuzumab HCDR3 variant AVEGGTRALEP (SEQ ID NO: 483) (Fab, V domains shown)
VH: B8 VH with R98V, L99E, Y100G, Y101G, S102T, S103R, F104A, N105L, G106E, M107P
VL: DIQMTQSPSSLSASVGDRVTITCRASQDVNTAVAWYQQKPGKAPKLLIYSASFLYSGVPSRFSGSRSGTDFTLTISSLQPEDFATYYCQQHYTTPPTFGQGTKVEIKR
B11: De novo trastuzumab HCDR3 variant ARYYGWYYYFDY (SEQ ID NO: 482) (Fab, V domains shown)
VH: EVQLVESGGGLVQPGGSLRLSCAASGFNIKDTYIHWVRQAPGKGLEWVARIYPTNGYTRYADSVKGRFTISADTSKNTAYLQMNSLRAEDTAVYYCARYYGWYYYFDYWGQGTLVTVSS
VL: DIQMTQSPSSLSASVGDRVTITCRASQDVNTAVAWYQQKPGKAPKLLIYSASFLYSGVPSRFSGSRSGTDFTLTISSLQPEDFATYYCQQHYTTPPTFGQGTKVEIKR
B12: De novo trastuzumab HCDR3 variant ARGYGVGASFVY (SEQ ID NO: 496) (Fab, V domains shown)
VH: B11 VH with Y99G, W102V, Y103G, Y104A, Y105S, D107V
VL: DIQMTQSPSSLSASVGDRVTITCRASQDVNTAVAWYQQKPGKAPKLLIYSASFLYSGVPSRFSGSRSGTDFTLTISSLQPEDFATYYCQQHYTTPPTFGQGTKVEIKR
B13: De novo trastuzumab HCDR3 variant ARYLSDSYAWDY (SEQ ID NO: 490) (Fab, V domains shown)
VH: B11 VH with Y100L, G101S, W102D, Y103S, Y105A, F106W
VL: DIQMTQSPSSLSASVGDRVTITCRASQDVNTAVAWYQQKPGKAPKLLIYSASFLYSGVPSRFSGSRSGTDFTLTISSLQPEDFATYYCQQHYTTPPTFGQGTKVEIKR
B14: De novo trastuzumab HCDR3 variant ASDRYGSYSLVS (SEQ ID NO: 480) (Fab, V domains shown)
VH: B11 VH with R98S, Y99D, Y100R, G101Y, W102G, Y103S, Y105S, F106L, D107V, Y108S
VL: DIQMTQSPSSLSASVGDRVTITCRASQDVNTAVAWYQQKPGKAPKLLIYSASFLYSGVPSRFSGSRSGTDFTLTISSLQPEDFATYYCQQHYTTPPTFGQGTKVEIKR
B15: De novo trastuzumab HCDR3 variant ARYHYSGFFMDA (SEQ ID NO: 489) (Fab, V domains shown)
VH: B11 VH with Y100H, G101Y, W102S, Y103G, Y104F, Y105F, F106M, Y108A
VL: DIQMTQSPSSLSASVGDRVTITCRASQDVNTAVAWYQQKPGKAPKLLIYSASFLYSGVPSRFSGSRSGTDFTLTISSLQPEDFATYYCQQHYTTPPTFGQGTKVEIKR
B16: De novo trastuzumab HCDR3 variant ARDYDFGLSVGAV (SEQ ID NO: 486) (Fab, V domains shown)
VH: EVQLVESGGGLVQPGGSLRLSCAASGFNIKDTYIHWVRQAPGKGLEWVARIYPTNGYTRYADSVKGRFTISADTSKNTAYLQMNSLRAEDTAVYYCARDYDFGLSVGAVWGQGTLVTVSS
VL: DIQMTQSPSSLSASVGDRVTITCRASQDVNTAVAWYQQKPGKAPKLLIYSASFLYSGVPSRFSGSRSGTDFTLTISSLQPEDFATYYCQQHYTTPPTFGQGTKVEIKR
B17: De novo trastuzumab HCDR3 variant VRSGYDYYSWFAY (SEQ ID NO: 492) (Fab, V domains shown)
VH: B16 VH with A97V, D99S, Y100G, D101Y, F102D, G103Y, L104Y, V106W, G107F, V109Y
VL: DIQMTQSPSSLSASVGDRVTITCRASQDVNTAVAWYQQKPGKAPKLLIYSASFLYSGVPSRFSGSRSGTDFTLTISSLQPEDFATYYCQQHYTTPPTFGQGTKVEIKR
B18: De novo trastuzumab HCDR3 variant ARYHYRTIGSFGY (SEQ ID NO: 487) (Fab, V domains shown)
VH: EVQLVESGGGLVQPGGSLRLSCAASGFNIKDTYIHWVRQAPGKGLEWVARIYPTNGYTRYADSVKGRFTISADTSKNTAYLQMNSLRAEDTAVYYCARYHYRTIGSFGYWGQGTLVTVSS
VL: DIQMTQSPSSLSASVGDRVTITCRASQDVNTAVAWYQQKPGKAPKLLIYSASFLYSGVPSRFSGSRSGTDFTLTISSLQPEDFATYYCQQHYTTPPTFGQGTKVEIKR
B19: De novo trastuzumab HCDR3 variant ATGLSPSGSNGPY (SEQ ID NO: 491) (Fab, V domains shown)
VH: B16 VH with R98T, D99G, Y100L, D101S, F102P, G103S, L104G, V106N, A108P, V109Y
VL: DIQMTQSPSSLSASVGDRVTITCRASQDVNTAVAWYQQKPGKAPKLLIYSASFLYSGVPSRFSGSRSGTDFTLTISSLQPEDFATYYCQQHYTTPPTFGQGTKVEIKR
B20: De novo trastuzumab HCDR3 variant AYMGSHTIYSFEH (SEQ ID NO: 479) (Fab, V domains shown)
VH: B18 VH with R98Y, Y99M, H100G, Y101S, R102H, G105Y, G108E, Y109H
VL: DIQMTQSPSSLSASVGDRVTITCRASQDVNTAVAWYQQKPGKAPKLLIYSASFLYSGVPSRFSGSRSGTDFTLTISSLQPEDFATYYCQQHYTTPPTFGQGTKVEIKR
B21: De novo trastuzumab HCDR3 variant ARLGASHGYLYDD (SEQ ID NO: 484) (Fab, V domains shown)
VH: B1 VH with D52Y, A54T, V99L, G101A, R102S, G103H, Y104G, Y106L, Y109D
VL: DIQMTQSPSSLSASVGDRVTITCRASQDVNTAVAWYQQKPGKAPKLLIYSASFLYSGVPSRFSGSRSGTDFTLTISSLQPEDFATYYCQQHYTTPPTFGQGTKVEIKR
B22: De novo trastuzumab HCDR3 variant ARNYYGAAYYFDY (SEQ ID NO: 495) (Fab, V domains shown)
VH: B18 VH with Y99N, H100Y, R102G, T103A, I104A, G105Y, S106Y, G108D
VL: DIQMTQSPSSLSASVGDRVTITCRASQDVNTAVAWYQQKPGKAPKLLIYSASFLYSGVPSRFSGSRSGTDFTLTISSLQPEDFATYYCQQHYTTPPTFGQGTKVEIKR
B23: De novo trastuzumab HCDR3 variant ARGYAYYVAGREY (SEQ ID NO: 493) (Fab, V domains shown)
VH: B16 VH with D99G, D101A, F102Y, G103Y, L104V, S105A, V106G, G107R, A108E, V109Y
VL: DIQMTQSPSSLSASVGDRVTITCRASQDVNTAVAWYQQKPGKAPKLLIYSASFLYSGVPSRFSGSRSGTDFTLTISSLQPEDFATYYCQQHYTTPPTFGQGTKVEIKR
B24: De novo trastuzumab HCDR3 variant ATSGTASWQHYGV (SEQ ID NO: 481) (Fab, V domains shown)
VH: EVQLVESGGGLVQPGGSLRLSCAASGFNIKDTYIHWVRQAPGKGLEWVARIYPTNGYTRYADSVKGRFTISADTSKNTAYLQMNSLRAEDTAVYYCATSGTASWQHYGVWGQGTLVTVSS
VL: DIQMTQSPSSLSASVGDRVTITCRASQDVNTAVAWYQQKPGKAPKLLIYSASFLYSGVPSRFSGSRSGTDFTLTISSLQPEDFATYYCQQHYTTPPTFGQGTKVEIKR
B25: De novo trastuzumab HCDR3 variant AWASGYGGYGMDY (SEQ ID NO: 488) (Fab, V domains shown)
VH: B1 VH with D52Y, A54T, R98W, V99A, G100S, R102Y, Y104G, Y106G, Y107M
VL: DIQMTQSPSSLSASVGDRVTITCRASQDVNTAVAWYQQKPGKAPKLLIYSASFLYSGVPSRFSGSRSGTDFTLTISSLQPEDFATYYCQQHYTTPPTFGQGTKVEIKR
B26: De novo trastuzumab HCDR3 variant ARSNNWYSYSFQF (SEQ ID NO: 478) (Fab, V domains shown)
VH: B18 VH with Y99S, H100N, Y101N, R102W, T103Y, I104S, G105Y, G108Q, Y109F
VL: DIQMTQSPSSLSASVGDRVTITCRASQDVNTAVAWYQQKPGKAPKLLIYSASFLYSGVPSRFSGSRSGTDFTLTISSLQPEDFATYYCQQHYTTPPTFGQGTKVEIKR
B27: Multi-step trastuzumab HCDR3 variant ASSGGSSSYSYYY (SEQ ID NO: 513) (Fab, V domains shown)
VH: B24 VH with T98S, T101G, A102S, W104S, Q105Y, H106S, G108Y, V109Y
VL: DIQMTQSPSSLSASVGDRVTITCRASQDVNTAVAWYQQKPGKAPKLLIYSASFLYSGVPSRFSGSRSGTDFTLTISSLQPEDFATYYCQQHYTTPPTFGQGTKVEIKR
B28: Multi-step trastuzumab HCDR3 variant ARYRGRGFYSFDY (SEQ ID NO: 532) (Fab, V domains shown)
VH: B18 VH with H100R, Y101G, T103G, I104F, G105Y, G108D
VL: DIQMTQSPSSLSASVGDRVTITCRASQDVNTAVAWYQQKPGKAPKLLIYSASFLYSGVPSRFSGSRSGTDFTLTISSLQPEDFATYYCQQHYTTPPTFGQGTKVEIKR
B29: Multi-step trastuzumab HCDR3 variant ARYSGSSYYYYDY (SEQ ID NO: 536) (Fab, V domains shown)
VH: B1 VH with D52Y, A54T, V99Y, G100S, R102S, G103S
VL: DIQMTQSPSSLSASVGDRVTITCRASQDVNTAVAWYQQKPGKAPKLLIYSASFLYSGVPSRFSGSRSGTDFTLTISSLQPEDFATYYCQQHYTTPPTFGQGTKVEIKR
B30: Multi-step trastuzumab HCDR3 variant SRYSYSGGGSFDY (SEQ ID NO: 537) (Fab, V domains shown)
VH: B18 VH with A97S, H100S, R102S, T103G, I104G, G108D
VL: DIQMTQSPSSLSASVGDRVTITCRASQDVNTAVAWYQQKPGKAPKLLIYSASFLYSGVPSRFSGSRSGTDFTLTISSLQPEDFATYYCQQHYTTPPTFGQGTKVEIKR
B31: Multi-step trastuzumab HCDR3 variant ARYSYYGGGAFDY (SEQ ID NO: 543) (Fab, V domains shown)
VH: B18 VH with H100S, R102Y, T103G, I104G, S106A, G108D
VL: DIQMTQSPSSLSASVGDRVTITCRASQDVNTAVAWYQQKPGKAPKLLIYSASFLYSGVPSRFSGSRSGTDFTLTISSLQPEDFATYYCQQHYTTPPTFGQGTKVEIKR
B32: Multi-step trastuzumab HCDR3 variant TRYGSFGYYALDS (SEQ ID NO: 530) (Fab, V domains shown)
VH: B1 VH with D52Y, A54T, A97T, V99Y, G101S, R102F, Y106A, Y107L, Y109S
VL: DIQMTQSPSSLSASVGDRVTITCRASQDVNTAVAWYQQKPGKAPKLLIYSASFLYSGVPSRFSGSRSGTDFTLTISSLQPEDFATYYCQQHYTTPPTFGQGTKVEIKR
B33: Multi-step trastuzumab HCDR3 variant SRYGYSGYGAFDY (SEQ ID NO: 521) (Fab, V domains shown)
VH: B18 VH with A97S, H100G, R102S, T103G, I104Y, S106A, G108D
VL: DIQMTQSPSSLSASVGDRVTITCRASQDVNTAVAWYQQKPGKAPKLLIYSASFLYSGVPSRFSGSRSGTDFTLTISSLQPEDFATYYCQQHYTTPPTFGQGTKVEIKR
B34: Multi-step trastuzumab HCDR3 variant TRYSYYGYHAMDY (SEQ ID NO: 549) (Fab, V domains shown)
VH: B18 VH with A97T, H100S, R102Y, T103G, I104Y, G105H, S106A, F107M, G108D
VL: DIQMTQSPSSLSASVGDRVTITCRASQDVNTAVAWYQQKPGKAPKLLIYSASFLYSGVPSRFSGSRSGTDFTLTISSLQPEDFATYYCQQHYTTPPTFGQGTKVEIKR
B35: Multi-step trastuzumab HCDR3 variant ARYSSSGGSAFDY (SEQ ID NO: 542) (Fab, V domains shown)
VH: B18 VH with H100S, Y101S, R102S, T103G, I104G, G105S, S106A, G108D
VL: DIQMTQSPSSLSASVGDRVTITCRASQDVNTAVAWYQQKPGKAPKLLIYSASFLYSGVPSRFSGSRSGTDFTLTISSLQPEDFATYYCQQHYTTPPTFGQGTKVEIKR
B36: Multi-step trastuzumab HCDR3 variant ARYYGSSSYYFAY (SEQ ID NO: 75) (Fab, V domains shown)
VH: B18 VH with H100Y, Y101G, R102S, T103S, I104S, G105Y, S106Y, G108A
VL: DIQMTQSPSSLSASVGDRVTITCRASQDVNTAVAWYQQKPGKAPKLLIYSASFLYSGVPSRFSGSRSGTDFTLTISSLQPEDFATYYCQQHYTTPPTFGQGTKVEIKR
notes: also called AI Design 9
B37: Multi-step trastuzumab HCDR3 variant ARYSGDSYYYYDY (SEQ ID NO: 550) (Fab, V domains shown)
VH: B1 VH with D52Y, A54T, V99Y, G100S, R102D, G103S
VL: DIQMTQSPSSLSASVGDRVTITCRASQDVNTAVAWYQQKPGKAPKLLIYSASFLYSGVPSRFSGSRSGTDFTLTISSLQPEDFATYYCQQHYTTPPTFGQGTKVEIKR
B38: Multi-step trastuzumab HCDR3 variant ARYSYYGGGYFDY (SEQ ID NO: 515) (Fab, V domains shown)
VH: B18 VH with H100S, R102Y, T103G, I104G, S106Y, G108D
VL: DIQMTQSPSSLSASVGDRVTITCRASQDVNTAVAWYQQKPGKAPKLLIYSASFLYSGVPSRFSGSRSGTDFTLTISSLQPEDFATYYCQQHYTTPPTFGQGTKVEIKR
B39: De novo trastuzumab HCDR1|2|3 variant GFNVSSSY / IYPENGST / SRYSYYGGYAFDY (Fab, V domains shown)
VH: EVQLVESGGGLVQPGGSLRLSCAASGFNVSSSYIHWVRQAPGKGLEWVARIYPENGSTRYADSVKGRFTISADTSKNTAYLQMNSLRAEDTAVYYCSRYSYYGGYAFDYWGQGTLVTVSS
VL: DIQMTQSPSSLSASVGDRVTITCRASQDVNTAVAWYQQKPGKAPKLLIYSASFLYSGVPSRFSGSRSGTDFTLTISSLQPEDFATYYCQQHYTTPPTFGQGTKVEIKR
notes: also called AI Design 1

Each binder was assayed against human epidermal growth factor receptor 2 (HER2) extracellular domain (human, UniProt P04626 23-629) (assay: SPR).

Binder | Kd
B1 | 134 nM
B2 | 642 nM
B3 | 1320 nM
B4 | 192 nM
B5 | 394 nM

The binders below were run against T1, human epidermal growth factor receptor 2 (HER2) extracellular domain (human, UniProt P04626 23-629) (assay: SPR, Fab format).

Binder | Kd | log(KD (M))
B6 | 1460 nM | -5.84 log M
B7 | 574 nM | -6.24 log M
B8 | 339 nM | -6.47 log M
B9 | 547 nM | -6.26 log M
B10 | 326 nM | -6.49 log M
B11 | 323 nM | -6.49 log M
B12 | 630 nM | -6.2 log M
B13 | 434 nM | -6.36 log M
B14 | 314 nM | -6.5 log M
B15 | 433 nM | -6.36 log M
B16 | 358 nM | -6.45 log M
B17 | 465 nM | -6.33 log M
B18 | 367 nM | -6.44 log M
B19 | 444 nM | -6.35 log M
B20 | 301 nM | -6.52 log M
B21 | 328 nM | -6.48 log M
B22 | 570 nM | -6.24 log M
B23 | 496 nM | -6.3 log M
B24 | 322 nM | -6.49 log M
B25 | 368 nM | -6.43 log M
B26 | 278 nM | -6.56 log M

Target: T1, human epidermal growth factor receptor …
Assay: SPR, Fab format
Remark: another data set of the same source

Binder | Kd | log(KD (M))
B27 | 1720 nM | -5.76 log M
B28 | 22 nM | -7.66 log M
B29 | 423 nM | -6.37 log M
B30 | 362 nM | -6.44 log M
B31 | 191 nM | -6.72 log M
B32 | 57.6 nM | -7.24 log M
B33 | 1050 nM | -5.98 log M
B34 | 354 nM | -6.45 log M
B35 | 1990 nM | -5.7 log M
B36 | 60.6 nM | -7.22 log M
B37 | 366 nM | -6.44 log M
B38 | 478 nM | -6.32 log M
B39 | 225 nM | -6.65 log M
